Assay results as given in article PMC10465003, “The AAA-ATPase Yta4/ATAD1 interacts with the mitochondrial divisome to inhibit mitochondrial fission” (PLOS Biology, 2023).
Numbering of substitutions follows the chain as printed. In names and notes the source's numbering stands. Blank lines part the entries; values can stand above or below the molecule they belong to.

T1: GST-Mdv1(a.a. 1–249) (Schizosaccharomyces pombe (strain 972 / …, UniProt Q9P7I3))
T1 chain: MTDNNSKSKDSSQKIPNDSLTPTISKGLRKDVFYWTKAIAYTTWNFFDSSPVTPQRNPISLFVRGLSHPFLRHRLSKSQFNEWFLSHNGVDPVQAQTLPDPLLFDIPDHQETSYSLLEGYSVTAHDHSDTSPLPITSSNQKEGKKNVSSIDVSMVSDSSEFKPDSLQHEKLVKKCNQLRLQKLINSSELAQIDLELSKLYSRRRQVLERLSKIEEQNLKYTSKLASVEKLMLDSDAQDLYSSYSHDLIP

T2: GST-Mdv1(a.a. 1–249) (Schizosaccharomyces pombe, UniProt Q9P7I3 1-249)
T2 construct: Mdv1, S. pombe, residues 1-249, the N-terminus; also called GST-Mdv1(NT); not shown: GST, N-terminal, kept
T2 sequence (looked up): T1 chain

T3: Dnm1(G380D) (Schizosaccharomyces pombe, UniProt Q09748 1-781, G380D)
T3 construct: Dnm1, fission yeast dynamin-related GTPase, with G380D (corresponds to G385D of S. cerevisiae Dnm1); Removal of His-sumo is stated for His-sumo-Dnm1 only; also called assembly-defective mutant of Dnm1; source: E. coli Rosseta, expressed as His-sumo-Dnm1(G380D), purified (Ni-NTA)
T3 sequence (looked up): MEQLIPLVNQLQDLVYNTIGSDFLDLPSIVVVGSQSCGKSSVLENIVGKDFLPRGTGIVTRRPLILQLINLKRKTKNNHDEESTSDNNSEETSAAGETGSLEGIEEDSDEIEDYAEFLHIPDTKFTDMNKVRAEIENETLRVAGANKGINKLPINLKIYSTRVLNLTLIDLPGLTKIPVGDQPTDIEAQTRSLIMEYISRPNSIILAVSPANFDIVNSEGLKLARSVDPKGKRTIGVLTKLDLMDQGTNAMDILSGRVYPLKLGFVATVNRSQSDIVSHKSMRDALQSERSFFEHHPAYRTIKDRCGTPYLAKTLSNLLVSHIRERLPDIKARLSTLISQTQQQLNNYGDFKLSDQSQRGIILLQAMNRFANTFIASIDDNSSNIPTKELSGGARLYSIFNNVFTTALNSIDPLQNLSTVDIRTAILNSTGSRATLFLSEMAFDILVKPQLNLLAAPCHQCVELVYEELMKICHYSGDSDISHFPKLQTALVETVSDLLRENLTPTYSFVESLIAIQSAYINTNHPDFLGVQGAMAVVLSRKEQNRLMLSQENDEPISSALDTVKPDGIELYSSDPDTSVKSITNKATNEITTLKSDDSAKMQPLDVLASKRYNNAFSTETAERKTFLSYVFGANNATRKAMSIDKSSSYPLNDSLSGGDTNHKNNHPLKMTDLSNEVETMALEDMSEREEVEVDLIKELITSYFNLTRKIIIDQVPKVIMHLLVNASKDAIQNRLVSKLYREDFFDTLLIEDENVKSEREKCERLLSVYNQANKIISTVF

B1: His-Fis1(1–128) (domain or fragment, Schizosaccharomyces pombe, UniProt Q9USZ8 1-128, looked up)
chain: MTEKHTLRLADPSAIDSIISVDEFLQIKEQYDAEQPLITLQTKFNLAWALVRSDSTQHVQQGLSLFCSIYKDSPERRLECLYYIALSHYKLKQYEESRRYLNMLLSKDPNSPEALKLKNRLYDAVTKE
notes: also called His-Fis1(∆TM); Fis1(∆TM); source: E. coli BL21, purified (Ni-NTA, size-exclusion chromatography); not shown: His tag, N-terminal, kept
B2: Dnm1 (enzyme, Schizosaccharomyces pombe, UniProt Q09748 1-781, looked up)
chain: T3 sequence (looked up) with D380G
notes: Dnm1, fission yeast dynamin-related GTPase; also called Dnm1(WT); recombinant Dnm1; source: E. coli Rosseta, purified (Ni-NTA, sumo protease, size-exclusion chromatography); not shown: His-sumo, N-terminal, cleaved
B3: Dnm1 (Schizosaccharomyces pombe 972h-; G380D) (protein)
chain: T3 sequence (looked up)
notes: Dnm1 expressed as His-sumo-Dnm1 in E. coli Rosetta; His-sumo tag removed by sumo protease; Ni-NTA and SEC; forms heterogeneous oligomers
B4: GST-Mdv1(319–651) (domain or fragment, Schizosaccharomyces pombe, UniProt Q9P7I3 319-651, looked up)
chain: YIVGNLVKQFQAHSEYITSLDFSHPFGTLATASTDKTVKVWDMAGVVYLGSLKGHSDYVSCLAIQDSFIATGSMDTTVRLWNLDNDVLHKDNPVEESLNSPPDQPVDNATNVLTSHTAPVTALALSSDDVLITGADDKTVRQWDIVTGRCIQTLDFVWAETHDTSTSQILVSDTYKQEPFIRALDCLDAAVASGTVDGLIRIWDLRIGLPVRSFIGHTAPISSLQFDSNHLYSGSYDNSVRIWDLRSGSPINIIPMEKKVNSLRLYQGRLAVASDEPNVRIFDTVSNRNWICSIPSHSDSIAAEPNSVPTSVQYKDRFLVDGKSDGSVSVFSA
notes: also called GST-Mdv1(WD); Mdv1(WD); source: E. coli BL21, purified (Glutathione Sepharose 4B resins); not shown: GST, N-terminal, kept

How the values were obtained:
[1] = target: Hcp1-Yta4(a.a. 35–355) (not stated | Schizosaccharomyces pombe); test: SEC + cross-linking; Superdex 200 Increase 10/300 GL in hypersaline buffer (500 mM NaCl, 500 mM KCl, 1 mM ATP, pH 7.5); EGS 4 mM, 300 ng/μL protein, 30 min at room temperature, SDS-PAGE with silver staining
[2] = target: Hcp1-Msp1(a.a. 36–362) (not stated | budding yeast (Saccharomyces cerevisiae)) (UniProt P28737); test: as above
[3] = target: GST-Mdv1(319–651) (Schizosaccharomyces pombe) (UniProt Q9P7I3); test: pull-down; competitive binding: GST-Mdv1(a.a. 319–651) on glutathione resins incubated with Dnm1 or Dnm1(G380D), with or without His-Yta4(a.a 33–355); band intensities quantified
Dnm1 [4] = target: B2
GST-Mdv1(a.a. 1–249) [5] = target: T1, GST-Mdv1(a.a. 1–249); test: GST pull-down
GST-Mdv1(a.a. 1–249) [6] = target: T2, GST-Mdv1(a.a. 1–249); test: pull-down; competitive binding: GST-Mdv1(a.a. 1–249) on glutathione resins incubated with His-Fis1(a.a. 1–128), with or without His-Yta4(a.a 33–355) (Mdv1 to Yta4 1:1, 1:5, 1:10); settings: both partners purified
[7] = target: the molecule itself; test: co-sedimentation; velocity sedimentation: 2 μM Dnm1 with 0, 5, 50 or 100 μM GMP-PCP, with or without 40 μM His-Yta4; 20 min at 37°C, 10,000 g 15 min at 4°C; supernatant and pellet on SDS-PAGE
[8] = substrate: Nc1nc2c(ncn2[C@@H]2O[C@H](COP(=O)(O)OP(=O)(O)OP(=O)(O)O)[C@@H](O)[C@H]2O)c(=O)[nH]1; test: malachite green phosphate release, Michaelis-Menten fit; format: biochemical, Schizosaccharomyces pombe; settings: pH 7.5, 37°C
Dnm1(G380D) = target: T3, Dnm1(G380D); test: pull-down; competitive binding: GST-Mdv1(a.a. 319–651) on glutathione resins incubated with Dnm1 or Dnm1(G380D), with or without His-Yta4(a.a 33–355); band intensities quantified; settings: both partners purified
Dnm1 [9] = target: B2; test: as above; settings: both partners purified

Molecule: Hcp1-Yta4(a.a. 35–355)
stoichiometry N [1]: 6

stoichiometry N [2]: 6
Molecule: Hcp1-Msp1(a.a. 36–362) (from UniProt P28737 36-362)

Dnm1 left on GST-Mdv1(WD) with His-Yta4(∆TM), percent of the level without it [3]: 40%
Km for GTP of the GTPase activity of 0.5 μM Dnm1 (colorimetric assay, 37°C) with 5 μM and 10 μM His-Yta4(∆TM), fold increase over Dnm1 alone; Vmax not significantly affected (Dnm1 [4]): 6 fold
Molecule: His-Yta4(a.a. 33–355) (domain or fragment)

Molecule: B1
binding result (GST-Mdv1(a.a. 1–249) [5]): binds
binding result (GST-Mdv1(a.a. 1–249) [6]): binds

Molecule: B2
binding result [7]: binds
Km ([8]; 0.5 μM Dnm1 alone, Mg2+): 193.80 µM

Molecule: B3
Km ([8]; assembly-defective mutant, 0.5 μM, without Yta4, Mg2+): 85.00 µM

Molecule: B4
binding result (Dnm1(G380D)): binds
binding result (Dnm1 [9]): binds
